Reference: PMC6662825, “The MTR4 helicase recruits nuclear adaptors of the human RNA exosome using distinct arch-interacting motifs” (Nature Communications, 2019)
Substitutions are numbered along the chain they refer to. Values belong to the binder of their own block, whether it stands above or below them.

Columns and labels:
Conditions in all cases: both partners purified
GST-MTR4-∆N = biological target: T1, GST-MTR4-∆N (human, UniProt P42285 75-1042); experiment: pull-down; GST-MTR4∆N (WT or mutants) as bait, 30 μM, with 60 μM Trx-NOP53^84–123 in 30 μl, glutathione sepharose; 50 mM Hepes pH 7.5, 150 mM NaCl, 5% glycerol, 0.05% NP40, 1 mM DTT, 4 °C; SDS-PAGE, Coomassie
T1 construct: Tag is cleavable with 3C protease; kept for the GST pull-downs; also called GST-tagged MTR4∆N; source: E. coli BL21 star (DE3), purified (Ni-NTA, heparin, SEC); not shown: 6xHis-GST, N-terminal, kept
T1 sequence (looked up): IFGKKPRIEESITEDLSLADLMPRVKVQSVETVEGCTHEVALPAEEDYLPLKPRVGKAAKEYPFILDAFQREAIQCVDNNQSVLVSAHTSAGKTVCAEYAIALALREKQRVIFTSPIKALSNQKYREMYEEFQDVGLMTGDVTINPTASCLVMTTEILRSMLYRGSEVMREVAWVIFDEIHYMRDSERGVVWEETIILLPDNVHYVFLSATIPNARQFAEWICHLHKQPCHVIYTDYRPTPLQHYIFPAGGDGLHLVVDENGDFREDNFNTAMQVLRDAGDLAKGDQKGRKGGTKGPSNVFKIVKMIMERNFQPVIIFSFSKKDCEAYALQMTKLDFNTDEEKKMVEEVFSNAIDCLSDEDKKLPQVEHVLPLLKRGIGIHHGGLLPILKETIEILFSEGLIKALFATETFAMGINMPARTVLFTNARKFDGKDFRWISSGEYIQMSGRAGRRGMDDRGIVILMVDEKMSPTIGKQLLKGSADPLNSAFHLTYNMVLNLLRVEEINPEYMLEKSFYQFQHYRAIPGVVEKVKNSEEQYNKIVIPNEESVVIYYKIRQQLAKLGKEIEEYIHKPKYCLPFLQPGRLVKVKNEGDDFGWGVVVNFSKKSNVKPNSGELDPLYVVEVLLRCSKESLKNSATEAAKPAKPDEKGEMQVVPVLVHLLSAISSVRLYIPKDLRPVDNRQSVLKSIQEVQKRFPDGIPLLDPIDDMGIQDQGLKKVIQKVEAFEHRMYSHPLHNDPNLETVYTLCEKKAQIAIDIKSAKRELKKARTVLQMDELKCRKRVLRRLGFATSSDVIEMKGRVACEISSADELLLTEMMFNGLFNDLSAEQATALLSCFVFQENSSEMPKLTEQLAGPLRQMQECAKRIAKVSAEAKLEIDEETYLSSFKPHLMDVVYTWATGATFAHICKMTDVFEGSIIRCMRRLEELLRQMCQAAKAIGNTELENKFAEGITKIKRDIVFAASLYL

GST-MTR4∆N R743E = biological target: T2, GST-MTR4∆N R743E (human, UniProt P42285 75-1042, R743E); experiment: as above
T2 construct: also called R743E mutant; source: E. coli BL21 star (DE3), purified (Ni-NTA, heparin, SEC); not shown: 6xHis-GST, N-terminal, kept
T2 sequence (looked up): T1 sequence (looked up) with R669E

GST-MTR4∆N F677E = biological target: T3, GST-MTR4∆N F677E (human, UniProt P42285 75-1042, F677E); experiment: as above
T3 construct: source: E. coli BL21 star (DE3), purified (Ni-NTA, heparin, SEC); not shown: 6xHis-GST, N-terminal, kept
T3 sequence (looked up): T1 sequence (looked up) with F603E

MTR4-∆N = biological target: T4, MTR4-∆N (human, UniProt P42285 75-1042); experiment: ITC; 500 µM NVL injected into 40 µM MTR4-∆N; 25 °C; 50 mM Hepes/NaOH pH 7.5, 150 mM NaCl, 0.5 mM TCEP
T4 construct: Used in ITC, named without GST; the tag was probably cleaved ('when appropriate'); also called MTR4-∆N (the reactant); source: E. coli BL21 star (DE3), purified (Ni-NTA, heparin, SEC)
T4 sequence (looked up): T1 sequence (looked up)

MTR4∆N2 (70–1042) = biological target: T5, MTR4∆N2 (70–1042) (human, UniProt P42285 70-1042); experiment: crystal structure; MTR4∆N2 (70–1042) mixed with 2 molar excess of NVL (167–216), with ADP and MgCl2; 3.07 Å, space group P6(1); PDB 6RO1
T5 construct: human MTR4; Crystallised with ADP and MgCl2 in the buffer; source: E. coli, purified; GST fusion cleaved with TEV; not shown: GST, N-terminal, cleaved
T5 sequence (looked up): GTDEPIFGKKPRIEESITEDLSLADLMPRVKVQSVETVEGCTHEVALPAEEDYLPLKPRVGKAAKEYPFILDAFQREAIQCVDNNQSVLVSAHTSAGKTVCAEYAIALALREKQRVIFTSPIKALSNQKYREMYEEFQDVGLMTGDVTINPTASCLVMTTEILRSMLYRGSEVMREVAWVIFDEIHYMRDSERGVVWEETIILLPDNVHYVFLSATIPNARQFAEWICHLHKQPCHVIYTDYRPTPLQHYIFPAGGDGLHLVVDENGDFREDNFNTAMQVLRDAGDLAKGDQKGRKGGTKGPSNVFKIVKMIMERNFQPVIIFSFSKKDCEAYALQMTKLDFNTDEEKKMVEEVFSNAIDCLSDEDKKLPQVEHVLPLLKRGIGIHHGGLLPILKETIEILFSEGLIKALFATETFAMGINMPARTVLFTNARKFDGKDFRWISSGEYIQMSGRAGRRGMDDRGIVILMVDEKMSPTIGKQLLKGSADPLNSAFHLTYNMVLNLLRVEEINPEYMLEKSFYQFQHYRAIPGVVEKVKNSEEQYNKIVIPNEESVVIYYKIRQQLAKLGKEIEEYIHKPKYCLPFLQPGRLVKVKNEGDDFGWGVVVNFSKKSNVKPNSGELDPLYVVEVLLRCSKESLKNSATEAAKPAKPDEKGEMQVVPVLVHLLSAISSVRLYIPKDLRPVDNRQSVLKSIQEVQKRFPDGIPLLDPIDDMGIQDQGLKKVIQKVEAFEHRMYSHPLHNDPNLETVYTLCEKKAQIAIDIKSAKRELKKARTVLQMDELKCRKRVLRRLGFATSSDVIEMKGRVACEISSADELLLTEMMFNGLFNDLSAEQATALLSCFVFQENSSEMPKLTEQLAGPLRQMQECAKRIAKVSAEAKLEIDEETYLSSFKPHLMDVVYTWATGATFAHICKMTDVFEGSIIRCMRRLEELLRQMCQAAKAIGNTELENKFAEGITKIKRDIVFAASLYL

MTR4-KOW = biological target: T6, MTR4-KOW (human, UniProt P42285 645-787); experiment: NMR titration; 1H-15N HSQC of 53 μM 15N-labelled MTR4-KOW with 0.25, 0.5, 1, 2 and 6 molar equivalents of unlabeled NVL^167–216; 298 K; phosphate buffered saline, 10% D2O
T6 construct: human MTR4 KOW domain, residues 645–787; Named without GST in MST, NMR and ITC; the methods say the His-GST tag was cleaved with 3C protease 'when appropriate', so it was probably removed; Isotope-labelled for NMR; also called unlabeled MTR4 KOW; 15N-labelled MTR4-KOW; source: E. coli BL21 star (DE3), purified (Ni-NTA, heparin, SEC); minimal medium with 15N/13C for NMR
T6 sequence (looked up): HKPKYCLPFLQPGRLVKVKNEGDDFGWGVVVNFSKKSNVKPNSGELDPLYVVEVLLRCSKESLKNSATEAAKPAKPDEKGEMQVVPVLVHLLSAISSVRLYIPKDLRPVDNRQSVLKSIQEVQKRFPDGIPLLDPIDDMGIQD

binding result (GST-MTR4-∆N): binds
binding result (GST-MTR4∆N R743E): binds
binding result (GST-MTR4∆N F677E): binds
B1: Trx-NOP53^84–123 (domain or fragment)
chain: not shown
notes: human NOP53 (also known as GLTSCR2), residues 84–123; also called human Nop53 orthologue; human Nop53; not shown: Trx, N-terminal, kept

binding result (MTR4-∆N): binds
binding result (MTR4∆N2 (70–1042)): binds
binding result (MTR4-KOW): binds
B2: NVL^167–216 (peptide, UniProt O15381 167-216, looked up)
chain: KDSEGGWFIDKTPSVKKDSFFLDLSCEKSNPKKPITEIQDSKDSSLLESD
notes: Named without Trx in ITC, NMR and crystallisation; the methods say tags were cleaved with 3C protease 'when appropriate', so the tag was probably removed; also called NVL peptide; source: E. coli BL21 star (DE3), purified (Ni-NTA, SEC)
